Data on 3 variants can be found in IntAct's records for PubMed 21239581.

First the molecules themselves.
B1: Chromosomal replication initiator protein DnaA (Bacillus subtilis), P05648 (parent)
chain: MENILDLWNQALAQIEKKLSKPSFETWMKSTKAHSLQGDTLTITAPNEFARDWLESRYLHLIADTIYELTGEELSIKFVIPQNQDVEDFMPKPQVKKAVKEDTSDFPQNMLNPKYTFDTFVIGSGNRFAHAASLAVAEAPAKAYNPLFIYGGVGLGKTHLMHAIGHYVIDHNPSAKVVYLSSEKFTNEFINSIRDNKAVDFRNRYRNVDVLLIDDIQFLAGKEQTQEEFFHTFNTLHEESKQIVISSDRPPKEIPTLEDRLRSRFEWGLITDITPPDLETRIAILRKKAKAEGLDIPNEVMLYIANQIDSNIRELEGALIRVVAYSSLINKDINADLAAEALKDIIPSSKPKVITIKEIQRVVGQQFNIKLEDFKAKKRTKSVAFPRQIAMYLSREMTDSSLPKIGEEFGGRDHTTVIHAHEKISKLLADDEQLQQHVKEIKEQLK
partner: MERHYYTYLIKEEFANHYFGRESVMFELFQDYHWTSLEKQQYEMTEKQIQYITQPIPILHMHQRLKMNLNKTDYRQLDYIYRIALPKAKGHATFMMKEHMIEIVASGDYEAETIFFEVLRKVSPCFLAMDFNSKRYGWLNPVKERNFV

The experiment covers variants of B1. As to conditions: with sira_bacsu sirA.
N47D: the “effect of a mutation on the interaction” value is on record as “disrupting interaction”.

In the case of F49Y, the “effect of a mutation on the interaction” value is reported as “disrupting interaction”. The result for A50T reads “disrupting interaction”.
